{
  "source": "patent US20220363781A1",
  "key": {"human TSLP-His (human) [1]": {"molecular_target": "human TSLP-His (human) (UniProt Q969D9)", "sequence (Q969D9 other isoform, or with tags, fused parts or gaps limits assumed)": "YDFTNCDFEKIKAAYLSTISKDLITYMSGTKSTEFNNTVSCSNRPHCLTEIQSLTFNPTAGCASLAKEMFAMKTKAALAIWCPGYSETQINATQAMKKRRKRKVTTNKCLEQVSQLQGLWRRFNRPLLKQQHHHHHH", "assay": "competitive ELISA, hIL7Rα-hTSLPR-hFc coated, hTSLP-His plus titrated antibody, anti-His-HRP"}, "human TSLP-His (human) [2]": {"molecular_target": "human TSLP-His (human) (UniProt Q969D9)", "assay": "BLI (Fortebio), antibody on ProA sensor, human TSLP 1.5625-100 nM, 1:1 model"}, "human TSLP-His (human) [3]": {"molecular_target": "human TSLP-His (human) (UniProt Q969D9)", "assay": "BLI (Fortebio), antibody on ProA sensor, human TSLP titrated, 1:1 model"}, "[4]": {"molecular_target": "monkey TSLP-His (cynomolgus monkey, Macaca fascicularis) (cynomolgus monkey (Macaca fascicularis))", "sequence (chain, as listed by the source)": "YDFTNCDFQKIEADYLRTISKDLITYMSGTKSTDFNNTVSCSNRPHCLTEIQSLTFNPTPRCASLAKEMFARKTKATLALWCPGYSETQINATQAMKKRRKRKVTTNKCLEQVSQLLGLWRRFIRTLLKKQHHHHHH", "assay": "ELISA, monkey TSLP-His coated, antibody titrated"}, "human TSLP-His (human) [5]": {"molecular_target": "human TSLP-His (human) (UniProt Q969D9)", "assay": "cell-based or functional assay"}, "human TSLP-His (human) [6]": {"molecular_target": "human TSLP-His (human) (UniProt Q969D9)", "assay": "ELISA, human TSLP-His coated on the plate, serially diluted antibody, HRP goat anti-human Fc, absorbance at 450 nm"}, "[7]": {"molecular_target": "monkey TSLP-His (cynomolgus monkey, Macaca fascicularis) (cynomolgus monkey (Macaca fascicularis))", "assay": "ELISA, monkey TSLP-His coated, antibody titrated, anti-human Fc-HRP"}, "FcRn (biotin-labeled)": {"molecular_target": "FcRn (biotin-labeled)", "sequence (P55899 24-297, chain 1 of 2)": "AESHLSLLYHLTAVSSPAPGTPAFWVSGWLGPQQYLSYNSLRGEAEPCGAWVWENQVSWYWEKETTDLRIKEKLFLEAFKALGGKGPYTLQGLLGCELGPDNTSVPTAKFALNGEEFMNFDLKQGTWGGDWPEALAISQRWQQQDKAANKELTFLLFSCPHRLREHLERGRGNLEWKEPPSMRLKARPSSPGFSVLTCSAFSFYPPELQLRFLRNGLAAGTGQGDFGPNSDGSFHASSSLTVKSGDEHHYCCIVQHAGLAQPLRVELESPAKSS", "sequence (P61769 21-119, chain 2 of 2, further chain)": "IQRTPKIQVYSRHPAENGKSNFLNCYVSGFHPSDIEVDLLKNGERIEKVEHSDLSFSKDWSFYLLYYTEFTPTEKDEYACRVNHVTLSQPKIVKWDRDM", "assay": "BLI (Fortebio), biotin-FcRn on SA sensor, antibody 1.5625-200 nM, pH 6.0, 1:1 model"}, "[8]": {"molecular_target": "monkey TSLP-His (cynomolgus monkey, Macaca fascicularis) (cynomolgus monkey (Macaca fascicularis))", "assay": "BLI (Fortebio), antibody on ProA sensor, monkey TSLP 1.5625-100 nM, 1:1 model"}, "human TSLP-His (human) [9]": {"molecular_target": "human TSLP-His (human) (UniProt Q969D9)", "assay": "ELISA, human TSLP-His coated, antibody titrated"}, "human TSLP-His (human) [10]": {"molecular_target": "human TSLP-His (human) (UniProt Q969D9)", "assay": "cell-based or functional assay", "remark": "listed apart in the source"}, "human TSLP-His (human) [11]": {"molecular_target": "human TSLP-His (human) (UniProt Q969D9)", "assay": "ELISA, human TSLP-His coated, antibody titrated, anti-human Fc-HRP"}},
  "note": "Where two headings read alike, the source gives them in different places.",
  "data": [
    {"substance": "Control antibody (control anti-TSLP antibody, chEMBL ID CHEMBL3707229)", "values": [
      {"measurement": "IC50", "setting": "human TSLP-His (human) [1]", "value": 0.93, "unit": "nM"},
      {"measurement": "Kd", "setting": "human TSLP-His (human) [2]", "value": 0.8, "unit": "nM"},
      {"measurement": "Kd", "setting": "human TSLP-His (human) [3]", "value": 0.373, "unit": "nM"},
      {"measurement": "EC50", "setting": "[4]", "value": 0.336, "unit": "nM"},
      {"measurement": "hTSLP EC50, inhibition of the proliferation of Ba/F3-hTSLPR-hIL7Rα cells", "setting": "human TSLP-His (human) [5]", "value": 0.57, "unit": "nM"},
      {"measurement": "EC50 (read off the curve)", "setting": "human TSLP-His (human) [6]", "value": 0.4, "unit": "µg/mL"},
      {"measurement": "EC50", "setting": "[7]", "value": 0.19, "unit": "nM"},
      {"measurement": "Kd", "setting": "FcRn (biotin-labeled)", "value": 11.2, "unit": "nM"},
      {"measurement": "Kd", "setting": "[8]", "value": 1.15, "unit": "nM"},
      {"measurement": "EC50", "setting": "human TSLP-His (human) [9]", "value": 0.233, "unit": "nM"},
      {"measurement": "EC50, blocking human TSLP-induced proliferation of Ba/F3-hTSLPR-hIL7Rα cells (CCK8)", "setting": "human TSLP-His (human) [10]", "value": 0.05, "unit": "nM"},
      {"measurement": "EC50, inhibition of human TSLP-induced PBMC secretion of MDC", "setting": "human TSLP-His (human) [10]", "value": 0.00563, "unit": "nM"},
      {"measurement": "EC50, inhibition of human TSLP-induced PBMC secretion of TARC", "setting": "human TSLP-His (human) [10]", "value": 0.51, "unit": "nM"},
      {"measurement": "hTSLP EC50, inhibition of the proliferation of Ba/F3-hTSLPR-hIL7Rα cells", "setting": "human TSLP-His (human) [10]", "value": 0.041, "unit": "nM"},
      {"measurement": "EC50", "setting": "human TSLP-His (human) [11]", "value": 1.4, "unit": "nM"}
    ]}
  ]
}
